Reference: PMC3469540

Tested on: PSC (Posterior Sex Combs) (Drosophila)
Assay: centrifugation (array oligomerization)
Conditions: 50% of template pelleted; saturates at 2 PSC per nucleosome; not an affinity; Buffer, salt, pH and temperature of the nucleic acid binding assays not given in the material; EMSA on 0.8% agarose, 0.5X TBE after glutaraldehyde …

12-nucleosome array
K half (PSC per nucleosome): 0.25
